According to the DeepSol protein solubility set:

Assay: soluble on expression in E. coli; label from the status in PepcDB or PDB records

Sequence	soluble on expression in E. coli
MSTRTEAVKAYLLDLQDRICTALEQEDGNAHFVEDAWTRPAGGGGRTRVVENGAVIEKGGVNFSHVFGSNLPPSASAHRPELAGRGFEALGVSLVIHPHSPHVPTSHANVRFFIAEKEGEEPVWWFGGGFDLTPYYGVEEDCVHWHRVAERACAPFGDDVYPRYKAWCDSYFHLKHRDEPRGIGGLFFDDVNQWDFDTSFAFIRAIGDAFINAYLPIVRRRKAAAYTVQQREFQEFRRGRYVEFNLVYDRGTLFGLQSGGRTESILMSLPPQVRWGYDWKAAPGSEEARLTDYFLTDRDWLADNAAALEHHHHHH	not soluble
MSAYPKSYNPFDDDGEDEGARPAPWRDARDLPDGPDAPADRQQYLRQEVLRRAEATAASTSRSLALMYESEKVGVASSEELARQRGVLERTEKMVDKMDQDLKISQKHINSIKSVFGGLVNYFKSKPVETPPEQNGTLTSQPNNRLKEAISTSKEQEAKYQASHPNLRKLDDTDPVPRGAGSAMSTDAYPKNPHLRAYHQKIDSNLDELSMGLGRLKDIALGMQTEIEEQDDILDRLTTKVDKLDVNIKSTERKVRQL	soluble
MRISTLQGQYQCIIIDPPWFYRLRSKDKTHRNRIPYQPMRTPEILALPIPDLCDAGGCVLWLWFTNNHMIEAAQCLQRWGFDLKTILTWGKVTKDGTKTHLGVGHWLRNSTEHCALAVRGNVKAFAGQTSTTGGTPTLTNQSTILHSPRREHSRKPPEFFELVEKLCPDMTKLEIFARESRDGWDCWGDQADLFDASDEEILVKAEKVLLLEHHHHHH	not soluble
MSVIDIHCHTAGVGAGGSGCFISTRLRESWRYRFYLASFGVTDAELEREGDGLVLRRLAERLAVSTRVQAAVVLALDGAIDSRGNLDQTRTELFIPNDFLSGQCRRYPNLLFGASVNPLRPDALDRLDAAAAASAVLVKWLPSIQGTDPADRRLVPFYRRLAELGLPLLTHTGEEQSFTRADNSLSDPNRLRLPLDEGVTVIAAHCATSGRSEGQRNRHRLLALFAAYPNLHADISSLTQVNRLGHLQWVLKHRELHERLLYGTDMPLPATALTSPWFHLFSLGPFAARRLAAIRNPWDRDVALKLALGMPEQILHNAAGLLRLALEHHHHHH	not soluble
MAHHHHHHMPRALRYCRPRRDPDESLLAYLSTKFTYLADAQWRQHIAAGDISVNGETLTDGSYVLRQGDMLRFAPPRSLEPPVDSEHIEVLYEDSTLLVVTKNGNLPVAEGGRYCENTLVEVLRRRGTAAFYTASTRTSFGTTHEDTEKVSDSPTHAGEIVETAARAEGSTAMDASGKGAEIPTSPPSRRRLEDGSHGIFAVGSAPCASVPSPKASTVQQRSSLDLFTVQRLDKETSGVVVLAKNSVSARTLASQLEAQTKGCADAVESRLRERGHAVALSSDAFDELLRLKAQSVHKTYTAVLRGAAPEDHTFVVVNCMDCMAKHPTHSWEAQHTQLKKLKMCCEPVKEMLFSHAAAALPQSPKEQQTRWGRLAVTRIRVLASNKKLGLTCVQVELLTGRSHQIRLHCAAVGYPVLGDKLYTTMTPGREGGATAVSDAVYLERVRREDDPYLPIDDDVSGAGGSSRSGKMWCRRHLLHATRIIFAHPDVSPARLMTFMASPAPFFTADVRFECEEDSLLFSQWLTRAVSRPLERAEASQS	not soluble
MGEKLELRLKSPVGAEPAVYPWPLPVYDKHHDAAHEIIETIRWVCEEIPDLKLAMENYVLIDYDTKSFESMQRLCDKYNRAIDSIHQLWKGTTQPMKLNTRPSTGLLRHILQQVYNHSVTDPEKLNNYEPFSPEVYGETSFDLVAQMIDEIKMTDDDLFVDLGSGVGQVVLQVAAATNCKHHYGVEKADIPAKYAETMDREFRKWMKWYGKKHAEYTLERGDFLSEEWRERIANTSVIFVNNFAFGPEVDHQLKERFANMKEGGRIVSSKPFAPLNFRINSRNLSDIGTIMRVVELSPLKGSVSWTGKPVSYYLHTIDRTILENYFSSLKNPKLREEQEAARRRQQRESKSNAATPTKGPEGKVAGPADAPMDSGAEEEKAGAATVKKPSPSKARKKKLNKKGRKMAGRKRGRPKK	soluble
MGSDKIHHHHHHMVSIRKSLLQFVFAGSYMKRWNDKLRPVELLEVDKQAHKMIVAWLLYQQNSDDLDDTSRLRLGSDIIEGGIFDYFYRLVITDIKPPVFYRIKDNAQHYAQLSAWVLDELEPLVQPLGEDFWGRMRGWVQRPEKNSRADRILDAAHLFASNWEFRLIESLNRFDDEIEDIGASFDAKLAGFDDLKGMDSLRHATGAVGRFAALCGQLRFQKRWSQTPRIPETSVLGHMFLVACYSYFFSLAVNACGARRQNNFFIGLFHDLPELLTRDIISPVKKSVEELDAVIKEYEEAELRRKVLNPLEEEGFGGIAARLSYYLGLEVGSEFTEAVVDNGNVLAVDFELLQSRYNHDRFDPRDGRMLKTCDTLAAFIEAYTAVRNGISSDQLQAALWRLRDKNRRTVIGPVHVGALFADFD	not soluble
MAHHHHHHMTSPALAPPQNTAEFWIKRLQLVPHPEGGYYSEVVRSAHKVDNEEGNRRHAYTTIYFLCTPESPSHLHRLCSDETWMYHAGDPLQLHVILKDPQDEDRIAAQPPAAPQAETDTADARPKYQVYRRVLVGARVERGELLQYTVPGGAIFGSSVAADGADGQAGYSLVSCIVSPGFDYRDFEIFTQAQLMELYPQHEAVIKQMAYETLPNHARLQTTEI	soluble
MSRTILQPGQIEAAANIPPHLHQPSRDLFARRGERLLQLAEGHPMGDYLRLVAGLCRLQQALLDNPPALAPLDPERLRKSREHGMPPLAYDLLVREGAWLPWLDALLAGYPAPANAAVGAALEQLREAEEGQRKAWAIALLSGQFDLLPAALVPFLGAALQVAWSHWLLGLEEGAVVETESRTLCPACGSPPMAGMIRQGGKETGLRYLSCSLCACEWHYVRIKCSHCEESKHLAYLSLEHDGQPAEKAVLRAETCPSCQGYLKQFYLEFDRHADALADDLASLALDMRLAEDGYLRRSPNLLLAPGGE	soluble
MSLTREVGQRREAEETAHKLAHTDPLTGCLNRRSMGPAVEQMVSTARTSGHEVVVMMMDLDNFKRSNDVHGHQAGDAVLLHTADRIRAILPAGSIIARLGGDEFACAAIFDPDHVESIDRLILRMNEAVAMPVRVDGLMLEVTASIGLAATSAADAGAPPALADTLLHRADLAMYQAKKAGRNRYCWFEQNMESELRFRSELEREIREGVARGEFVPYYEKQIDLETGELTGFEMLARWRSPRHGLLSPEIFIPIAEEIGLISELSENLIRQALRDARDWDPTLTLSVNISPIQLRDPWFAQKLLKLLVEANFPPHRLDIEITETCLHENVGVVRTLITSLKNQGIRISLDDFGTGYSSLAQLRTLPFDQIKIDRFFVSNLGKNKDSATIVEAISSLGKGMDLPITAEGIESPEVLDELRKFGKFKGQGFLYGQPGDASEIRAMLADRQLLQQQAEGHHHHHH	soluble
MRFFKHYAPSMIAKHISRLFNGKIHIHGIGEFRFKDGQLVAPTEAEREHYKMVKEINSEITRLKMAYLEHHHHHH	not soluble
MSLDKIMNEAISPWMKGDGPDSDIVLSSRIRLARNFKQYQFSTMQNEEEAQKVQELFKKKFINKAVEPFGKFGLLKMNELTPLQRRVLVEKHLISPNLAGTEYGACLLSESEHISVMLNEEDHIRIQCLFPGLQLSKALQSANQIDNWIEKEVEYAFDESLGYITSCPTNVGTGLRASVMIHLPGLVLTKRISRIIQVIQKLGLVVRGIYGEGSEALGNIFQVSNQMTLGKSEEDIIADLKSVMQQIIQQEKLARELIVQNSSIELEDKVYRSYGILANSRLIQSAEAATCLSDVRLGIDLGYIKGISRNILTELMVLTQPGILQQYAGGPLGPEERDYRRATLIRERLRIEKN	not soluble
MAHHHHHHMPRSEKQSEEDDWELHPLFLSKIPNKKDINKNQALSALITLINEEEEKEVFSYEPRRKNLKKKITEKGQIIYKKDRRNFYEPYQQNKNDKINYFEKKTLGGHSDVSKEEEVMDVEVDEEGTPLTAAQQGGDHSGQNVSSSQQATDETSIGEVLVCLSMINLK	not soluble
MQSVDVAIVGGGMVGLAVACGLQGSGLRVAVLDHVVPQPLANDASPQLRVSAINAASEKLLTRLGVWSNIVARRASCYHGMEVRDKDSFGRITFDDASMGYSHLGHIVENSVIHYALWQKAQQAADITLMAPAELQQVAWGENDAFLTLKDGAMLTARLVIAADGANSWLRNKADIPLTFWDYRHHALVATIRTEEPHGAVARQVFHGEGILAFLPLSDPHLCSIVWSLSPQDAERMQQSGDEAFNQALTIAFDNRLGLCRLESERQVFPLTGRYARQFAAHRLALVGDAAHTIHPLAGQGVNLGFMDAAELVDNLRRLQRQGKDIGQHLYLRRYERSRKHSAAMMLAGMQGFRDLFAGENPAKKLLRDIGLKLADTLPGVKPQLLRQAMGLNDLPQWLRLEHHHHHH	not soluble
MKSRYLLFFLPLIVAKYTSAATMQPFHSPEESVNSQFYLPPPPGNDDPAFRYDKEAYFKGYAIKGSPRWKQAAEDADISVENIARIFSPVVGAKISPKDTPETWNMLQNLLKVGGYYATASAKKYYMRTRPFVLFNHSTCRPEDENTLRKDGSYPSGHTAYSTLLALVLSQARPERAQELARRGWEFGQSRVICGAHWQSDVDAGRYVGAVEFARLQTIPAFQKSLAKVREELNDKNNLLSKEERPELNY	soluble
MFTATEAVPVAKVVAGNKRYPGVVALDNVNFTLNKGEVRALLGKNGAGKSTLIRMLTGSERPDSGDIWIGETRLEGDEATLTRRAAELGVRAVYQELSLVEGLTVAENLCLGQWPRRNGMIDYLQMAQDAQRCLQALGVDVSPEQLVSTLSPAQKQLVEIARVMKGEPRVVILDEPTSSLASAEVELVISAVKKMSALGVAVIYVSHRMEEIRRIASCATVMRDGQVAGDVMLENTSTHHIVSLMLGRDHVDIAPVAPQEIVDQAVLEVRALRHKPKLEDISFTLRRGEVLGIAGLLGAGRSELLKAIVGLEEYEQGEIVINGEKITRPDYGDMLKRGIGYTPENRKEAGIIPWLGVDENTVLTNRQKISANGVLQWSTIRRLTEEVMQRMTVKAASSETPIGTLSGGNQQKVVIGRWVYAASQILLLDEPTRGVDIEAKQQIYRIVRELAAEGKSVVFISSEVEELPLVCDRILLLQHGTFSQEFHAPVNVDELMSAILSVH	soluble
MSQSKGKKRNPGLKIPKEAFEQPQTSSTPPRDLDSKACISIGNQNFEVKADDLEPIMELGRGAYGVVEKMRHVPSGQIMAVKRIRATVNSQEQKRLLMDLDISMRTVDCPFTVTFYGALFREGDVWICMELMDTSLDKFYKQVIDKGQTIPEDILGKIAVSIVKALEHLHSKLSVIHRDVKPSNVLINALGQVKMCDFGISGYLVDSVAKTIDAGCKPYMAPERINPELNQKGYSVKSDIWSLGITMIELAILRFPYDSWGTPFQQLKQVVEEPSPQLPADKFSAEFVDFTSQCLKKNSKERPTYPELMQHPFFTLHESKGTDVASFVKLILGDLEHHHHHH	soluble
MCGRFVLFTTDESLLGHPALRIFHSIHAPKGMPPARYNIAPTTIIPILRVGTTPTEAVIEPARWGLIPAWKREVTLPPLFNARAETVTTKPSFRQAFSTQRCAIPMDGYYEWHNKKPYWITTGAPTWVAGLWDSGAGMLSATMITTDSVAPLDWLHHRMPRFLNNDELAVWLRGSADEASGLLTPGDASAFHTSLADPSVGNIRNDYPELIDAPTDLFSL	not soluble
